The experiment deals with T1, IL-27RA on NCI-H2228 lung cancer cells (human, UniProt Q6UWB1 33-636).
T1 sequence: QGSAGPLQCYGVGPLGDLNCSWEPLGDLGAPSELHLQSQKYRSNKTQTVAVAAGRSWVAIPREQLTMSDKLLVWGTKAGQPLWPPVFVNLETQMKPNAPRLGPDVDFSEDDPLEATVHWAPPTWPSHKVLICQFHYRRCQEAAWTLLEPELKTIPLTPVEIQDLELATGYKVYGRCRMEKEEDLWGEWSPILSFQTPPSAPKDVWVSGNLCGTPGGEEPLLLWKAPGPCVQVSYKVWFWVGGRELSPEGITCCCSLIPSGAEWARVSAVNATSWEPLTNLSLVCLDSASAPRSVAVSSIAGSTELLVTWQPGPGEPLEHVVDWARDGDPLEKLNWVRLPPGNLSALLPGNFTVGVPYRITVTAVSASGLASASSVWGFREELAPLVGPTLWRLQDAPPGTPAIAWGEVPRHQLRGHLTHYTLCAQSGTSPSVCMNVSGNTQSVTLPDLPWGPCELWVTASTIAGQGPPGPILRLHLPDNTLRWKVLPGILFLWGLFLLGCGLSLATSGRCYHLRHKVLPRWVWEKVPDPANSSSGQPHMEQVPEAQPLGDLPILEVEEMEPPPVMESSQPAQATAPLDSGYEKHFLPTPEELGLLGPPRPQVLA
Kind of experiment: cell-based or functional assay.

B1: recombinant human IL-27 (ligand)
chain 1: RKGPPAALTLPRVQCRASRYPIAVDCSWTLPPAPNSTSPVSFIATYRLGMAARGHSWPCLQQTPTSTSCTITDVQLFSMAPYVLNVTAVHPWGSSSSFVPFITEHIIKPDPPEGVRLSPLAERQLQVQWEPPGSWPFPEIFSLKYWIRYKRQGAARFHRVGPIEATSFILRAVRPRARYYVQVAAQDLTDYGELSDWSLPATATMSLGK
chain 2: FPRPPGRPQLSLQELRREFTVSLHLARKLLSEVRGQAHRFAESHLPGVNLYLLPLGEQLPDVSLTFQAWRRLSDPERLCFISTTLQPFHALLGGLGTQGRWTNMERMQLWAMRLDLRDLQRHLRFQVLAAGFNLPEEEEEEEEEEEEERKGLLPGALGSALQGPAQVSWPQLLSTYRLLHSLELVLSRAVRELLLLSKAGHSVWPLGFPTLSPQP
Take B1: the “EC50 of STAT1 phosphorylation (pSTAT1-PE GeoMean, flow cytometry) in NCI-H2228 lung cancer cells cultured with graded concentrations of IL-27” value came out at 5.3 ng/mL.

These data come from patent US20220389089A1 (SURFACE ONCOLOGY, published 2022).
